Assay results taken from paper PMC4813479, “β-Subunit Binding Is Sufficient for Ligands to Open the Integrin αIIbβ3 Headpiece” (The Journal of Biological Chemistry, 2015).

Biological target: full-length human αIIbβ3 on CHO K1 cells (human) (UniProt P08514)

EC50 of LIBS1 epitope exposure on CHO cells expressing αIIbβ3 (flow cytometry, 1 mM Mg2+ and 1 mM Ca2+): 210 µM
Substance: fibronectin hexapeptide GRGDSP
